The results in this text go back to patent publication US20210198377A1 (XDCEXPLORER SHANGHAI, published 2021).

Assay [1] deals with T1, cynomolgus monkey TPBG (full length, on cells) (cynomolgus monkey, UniProt Q4R8Y9 35-420).
T1 construct: whole, on cells; On transfected CHO-K1 cells; also called cTPBG; CHO-K1-cTPBG
T1 sequence (looked up): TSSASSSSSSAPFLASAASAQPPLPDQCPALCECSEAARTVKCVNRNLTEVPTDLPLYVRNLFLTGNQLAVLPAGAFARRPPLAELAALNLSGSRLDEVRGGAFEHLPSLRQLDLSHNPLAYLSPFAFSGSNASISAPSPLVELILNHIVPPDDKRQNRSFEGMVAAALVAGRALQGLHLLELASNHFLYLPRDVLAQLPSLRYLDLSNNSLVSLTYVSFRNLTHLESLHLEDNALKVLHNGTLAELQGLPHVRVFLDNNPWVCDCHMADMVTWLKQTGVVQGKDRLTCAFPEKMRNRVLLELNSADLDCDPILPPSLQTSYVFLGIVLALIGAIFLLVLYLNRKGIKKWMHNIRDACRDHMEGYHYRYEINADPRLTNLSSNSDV
Nature of the assay: FACS on CHO-K1-cTPBG cells. The text has this: (§1) The stable cell lines CHO-k1-hTPBG, CHO-k1-cTPBG, CHO-k1-mTPBG (i.e. the CHO-k1-hTPBG 3A2F1, CHO-k1-cTPBG 3F13G4 and CHO-k1-mTPBG 3A3 shown in table 7) and CHO-K1 cells were expanded to a 90% of confluency in T-75 cell culture flasks, the culture medium were removed, and cells were then rinsed twice with HBSS buffer (Hanks Balanced Salt Solution, purchased from Invitrogen) and lysed with enzyme-free cell dissociation buffer (Versene solution purchased from Life technology) and harvested. Harvested cells were rinsed with HBSS buffer twice and counted before diluting with HBSS buffer to 2×10⁶ cells /mL, and 10% goat serum blocking buffer was then added, wherein the percentage is the mass percentage. Cells were incubated on ice for 30 min, and then washed twice with HBSS buffer by centrifugation. The harvested cells were resuspended with FACS buffer (HBSS+1% BSA, wherein the percentage is mass percentage) to a concentration of 2×10⁶ cells /mL. 100 μL per well of the cells was aliquoted to 96-well FACS reaction plates, and 100 μL per well of test sample—the purified TPBG antibody obtaining from Embodiment 2 was added before incubating on ice for 2 h. The plate was washed with the FACS buffer twice by centrifugation, and 100 μL per well of fluorescence (Alexa 488) labeled secondary antibody (purchased from Invitrogen) was then added and incubated on ice for 1 h. The plate was washed with the FACS buffer for three times by centrifugation, follow by resuspending in 100 μL of fixation buffer (4% (v/v) paraformaldehyde). Cells were washed with FACS buffer twice after 10 min, follow by resuspending with 100 μL of FACS buffer. The results were measured and analyzed by FACS (FACS Calibur, purchased from BD). Data analysis was performed by software (CellQuest) to obtain mean fluorescence intensity (MFI) of the cells, follow by calculating EC50 value by software (GraphPad Prism) analysis and data fitting. The analysis results were shown in Table 8 and FIGS. 7-10, and data in FIGS. 7-10 show the mean fluorescence intensity (MFI) of cells.

Assay [2] concerns the target T2, human TPBG-hFc (human, UniProt Q13641 32-355).
T2 construct: also called immunogen A; hFc tagged TPBG protein; not shown: The human IgG Fc fragment of the pCpC vector (Invitrogen V044-50) and any linker to it
T2 sequence: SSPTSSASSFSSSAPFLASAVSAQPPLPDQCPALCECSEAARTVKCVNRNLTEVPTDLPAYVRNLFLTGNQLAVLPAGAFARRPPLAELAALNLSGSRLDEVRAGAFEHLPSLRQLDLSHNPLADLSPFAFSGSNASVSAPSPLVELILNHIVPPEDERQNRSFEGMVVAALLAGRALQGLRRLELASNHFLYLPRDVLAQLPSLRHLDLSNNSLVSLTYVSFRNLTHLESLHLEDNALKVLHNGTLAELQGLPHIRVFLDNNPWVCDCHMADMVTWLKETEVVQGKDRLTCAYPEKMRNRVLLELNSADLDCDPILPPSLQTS
The assay can be described thus: ELISA, coated human TPBG-hFc 1.0 ug/mL; antibody 0.0002 nM. The method, then: (§2) The purified immunogen A (as for its method of preparation please refer to step 1 in Example 1) diluting with PBS to a final concentration of 1.0 μg/mL was aliquoted into a 96-well ELISA plate at 100 μL per well, and sealed with a parafilm and incubated at 4° C. overnight. The plate was washed twice with plate washing buffer (PBS containing 0.01% (v/v) Tween 20), and blocked with blocking buffer (PBS containing 0.01% (v/v) Tween 20 and 1% (w/w) BSA) at room temperature for 2 h. The blocking buffer was discarded, and 100 μL per well of the purified antibody obtained from Embodiment 2 was added. After incubating at 37° C. for 2 h, the plate was washed for three times with plate washing buffer (PBS containing 0.01% (v/v) Tween 20). HRP (horseradish peroxidase)-labeled secondary antibody (purchased from Sigma) was added and incubated at 37° C. for 2 h, and the plate was washed for three times using plate washing buffer (PBS containing 0.01% (v/v) Tween 20). 100 μL of TMB substrate was aliquoted into each well, incubated at room temperature for 30 min, and 100 μL of stop buffer (1.0N HCl) per well was subsequently added. A₄₅₀ₙₘ values were read using the ELISA plate reader (SpectraMax 384plus purchased from Molecular Device), and the results were shown in FIG. 6 and table 6. […] In Table 6 the IgG control herein is a mice IgG control, the data in the Table are OD₄₅₀ₘₙ values, and Blank means the OD₄₅₀ₘₙ value when there is only PBS buffer in the plate.
On the technique in general: In an ELISA, binding on a coated surface is turned into a signal by an enzyme label.

The target in assay [3] is T3, mouse TPBG (full length, on cells) (mouse, UniProt Q9Z0L0 32-426).
T3 construct: whole, on cells; On transfected CHO-K1 cells; also called mTPBG; CHO-K1-mTPBG
T3 sequence (looked up): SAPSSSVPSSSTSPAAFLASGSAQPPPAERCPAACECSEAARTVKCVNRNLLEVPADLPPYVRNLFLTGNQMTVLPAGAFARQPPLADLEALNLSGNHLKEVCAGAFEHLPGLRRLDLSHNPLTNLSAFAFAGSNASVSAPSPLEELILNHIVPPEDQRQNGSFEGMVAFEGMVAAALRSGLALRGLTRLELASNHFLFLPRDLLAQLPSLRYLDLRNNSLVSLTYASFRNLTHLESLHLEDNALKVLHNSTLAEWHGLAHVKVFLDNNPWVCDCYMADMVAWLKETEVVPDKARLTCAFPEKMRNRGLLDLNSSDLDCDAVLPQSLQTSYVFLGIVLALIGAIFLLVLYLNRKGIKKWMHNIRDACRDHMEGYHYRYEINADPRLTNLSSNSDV
The assay can be described thus: FACS on CHO-K1-mTPBG cells.
Excerpt: as §1

Assay [4] concerns the target T2, human TPBG-hFc. The assay can be described thus: ELISA, coated human TPBG-hFc 1.0 ug/mL; antibody 0.02 nM. On the procedure: as §2

B1: 12B12C7C3 (antibody, V domains shown)
VH: DVQLVESGGGLVQPGGSRKLSCAASGFTFSNFGMHWVRQAPEKGLEWVAYISSGSTSFYYADTVKGRFTISRDNPKNTLFLQMTSLRSEDTAMYYCSRTNSLLRGFFDAWGAGTTVTVSS
VL: DIVLTQSPASLAVSLGQRATISCRASQSVSSSSYTYLHWYQQKPGQPPKLLIKSASNLESGVPARFSGTGSGTDFTLNIHPVEEEDTATYYCQHSWEIPLTFGAGTKLELK
notes: Mouse hybridoma antibody purified from culture supernatant; also called TPBG antibody; lead antibody
Regarding B1, in assay [1], the EC50 (commonly the concentration giving half of the maximal effect) is 0.59 nM. Moreover, the OD450nm with human TPBG-hFc [2] is 0.1 OD450nm; with human TPBG-hFc [4], 0.29 OD450nm. In addition, the binding result in assay [3] was “no binding”.
